Measurements published in patent publication US20140328753A1 (UNIVERSITE BORDEAUX SEGALEN, published 2014).

Experiments:
[1] = target: T1, biotinylated BSA (bovine, UniProt P02769 25-607, biotinylated); test: direct TR-FRET, scFv coated
T1 construct: Control protein in the direct TR-FRET assay, at 50 ug/mL; also called biotinylated control protein; bovine serum albumin
Method: FIG. 4. Direct TR-FRET binding assays between scFvs and atheromatous tissue extracts. Direct TR-FRET principle is schematized at the top. The donor fluorophore europium cryptate (Eu)K conjugated to anti-c-myc mAb was able to recognize c-myc tag expressed by scFvs. The acceptor fluorophore XL665 conjugated to streptavidin bound biotinylated protein extract. When scFvs and target proteins bound, a FRET signal was recorded. […] Specific TR-FRET signal was measured as a percentage DeltaF (percent DeltaF). The time course of the detection of the complex formation was performed after 6 hours (▪), 16 hours ( ), 24 hours ( ) and 40 hours (□) of incubation at 4° C. Ten microliter of scFv were coated on the plate at concentrations between 3 and 10 μg/mL according to the clone. The signals were measured in the presence of 4 nmol/L of mAb-(Eu)K, 4 nmol/L of streptavidin-XL665, and 30 μg/mL of biotinylated atheromatous protein extract or 50 μg/mL of biotinylated BSA (data not shown). Histobar values represent the average of at least three independent experiments±SD performed from the same purified scFv production.
Binding assays between scFvs and atheromatous protein extracts were assessed by direct TR-FRET. Black Fluotrac 600 microplate (Greiner) was coated with 10 μL of scFv (final concentration comprised between 3 and 10 μg/mL according to the clone) in 0.1 mol/L NaHCO₃, pH 8.6 for 16 hours at 4° C. Subsequently, plates were blocked for 3 hours at 4° C. using 1% BSA (w/v) in PBS solution. Following washing in PBS, 30 μg/mL of biotinylated atheromatous protein extract in 1% BSA/PBS was incubated for 16 hours at 4° C. After washing in PBS, 50 μL of reaction buffer (100 mmol/L Phosphate buffer, pH 7; 400 mmol/L KF buffer; 0.1% BSA), 4 nmol/L of anti c-myc-(Eu)K (Cisbio Bioassays, Codolet, France) and 4 nmol/L of streptavidin-XL665 (Cisbio Bioassays) were incubated in a final volume of 100 μL. FRET signal emission was measured and monitored with an Infinite® F500 reader (Tecan, Lyon, France) on a 40-hour time course. The percent DeltaF values reported the intensity of the direct binding between scFvs and protein extract.

[2] = target: human recombinant carbonic anhydrase II (human, UniProt P00918 1-260); test: ELISA, CA-II coated at 10 µg/mL, scFv at 10 µg/mL
Method: Ninety-six well ELISA microtiter plates (Greiner) were coated overnight, at 4° C., with 100 µL of human recombinant carbonic anhydrase II (Sigma-Aldrich, St louis, USA) at a final concentration of 10 μg/mL, or bovine serum albumin at 50 μg/mL in carbonate buffer (NaHCO3/Na2CO3, 50 mmol/L, pH 9.6). All further reactions were carried out at room temperature. Following three washing steps with PBS-Tween 20 (0.5% Tween 20), 100 μL of purified K3.1 scFv at 10 μg/mL were added to each well. After a 2-h incubation and five washing steps, bound scFv was labeled with a mix of HRP-conjugated anti c-myc (diluted 1/1000, Miltenyi Biotech) and anti 6His (diluted 1/500, Roche Diagnostics) mAbs. After 1-h incubation and washing steps, color was developed with 100 μL of 3,3′,5,5′-Tetramethylbenzidine (TMB) liquid substrate system for ELISA (Sigma) and the absorbance was read at 450 nm with an Infinite® F500 reader (Tecan, Lyon, France).

[3] = target: T2, rabbit cytosolic carbonic anhydrase isoenzyme II (CA-II) (rabbit, UniProt P00919 2-260); test: immunoprecipitation from rabbit atherosclerotic lysate on nickel beads, SDS-PAGE, LC-MS/MS
T2 construct: Pulled down from the lysate of rabbit atherosclerotic aorta; also called CA-II protein; protein with an apparent molecular mass of ~29 kDa
Method: Nickel-coated superparamagnetic beads (Ademtech, Pessac, France) were pre-washed three times with 500 μL of Binding Buffer (BB) (20 mmol/L Tris, pH 7; 500 mmol/L NaCl) and then incubated for 1 hour with 1 mg of rabbit atheromatous proteins solubilized in low stringent lysis buffer in order to get rid of nonspecific binding proteins. The supernatant free of nonspecific binding proteins was recovered and incubated with 10 μg of purified K3.1 scFv or of an irrelevant scFv for 16 hours at 4° C. under rotation. The next day, 20 μL of clean pre-washed superparamagnetic beads were added and incubated for a further 1 hour at 20° C. After three washings with 500 μL of BB, the immunoprecipitated complexes were eluted with 2×30 μL of elution buffer (20 mmol/L Tris-HCl, pH 7.5; 500 mmol/L NaCl; 100 mmol/L imidazole). The protein complexes were then separated using 10% SDS-PAGE under reducing conditions. The band was excised and submitted to trypsin digestion, followed by liquid chromatrography-tandem mass spectrometry analysis (LC-MS/MS).
To identify the molecule recognized by purified K3.1 scFv, immunoprecipitation experiments using nickel superparamagnetic beads were performed to retain 6H is-tagged scFvs complexed to antigens contained in the rabbit atherosclerotic protein lysate. […]

T1 sequence (P02769 25-607 limits assumed): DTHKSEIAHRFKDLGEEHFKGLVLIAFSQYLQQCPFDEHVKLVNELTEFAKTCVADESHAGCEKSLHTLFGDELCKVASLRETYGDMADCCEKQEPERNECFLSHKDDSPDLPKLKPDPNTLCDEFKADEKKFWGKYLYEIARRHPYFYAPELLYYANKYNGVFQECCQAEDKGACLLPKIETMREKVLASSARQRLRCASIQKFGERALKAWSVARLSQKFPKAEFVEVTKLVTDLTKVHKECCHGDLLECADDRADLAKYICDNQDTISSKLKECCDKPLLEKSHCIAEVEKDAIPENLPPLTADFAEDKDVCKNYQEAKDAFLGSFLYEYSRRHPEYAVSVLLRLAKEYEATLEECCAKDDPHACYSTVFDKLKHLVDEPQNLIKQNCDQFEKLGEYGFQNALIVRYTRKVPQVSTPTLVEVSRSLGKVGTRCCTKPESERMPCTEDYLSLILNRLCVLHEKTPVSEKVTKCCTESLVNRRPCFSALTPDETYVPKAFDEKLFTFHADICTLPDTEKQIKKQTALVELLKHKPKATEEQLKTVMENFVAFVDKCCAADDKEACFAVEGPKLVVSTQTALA

| binding result [2] | binding result [3] | Binder | binding result [1] |
| --- | --- | --- | --- |
|  |  | H2.1 scFv antibody (scFv, Soluble scFv with c-myc and 6His tags) scFv: EVQLVESGGSLVKPGGSLRLSCAASGFTFSNYSMNWVRQAPGKGLEWISSISGSSRYIYYADFVKGRFTISRDNATNSLYLQMNSLRAEDTAVYYCVRGGVDSSGDNCFDLWGRGTLVTVSSGGGGSGGGGSGGGGSQSVLTQPASVSGSPGQSITISCAGTSSDVGGYNYVSWYQQHPGKAPKLMIYEDSKRPSGVSNRFSGSKSGNTASLTISGLQAEDEADYYCTSYGSGATLVFGGGTKLAV | no binding (tested: 50 µg/mL of biotinylated BSA) |
|  |  | C3.3 scFv antibody (scFv, Soluble scFv with c-myc and 6His tags) scFv: EVQLVESGGSLVKPGGSLRLSCAASGFTFSNYSMNWVRQAPGKGLEWISSISGSSRYIYYADFVKGRFTISRDNATNSLYLQMNSLRAEDTAVYYCVRGIDGGGGWNYFDHWGRGTLVTVSSGGGGSGGGGSGGGGSQSVLTQPASVSGSPGQSITISCAGTSSDVGGYNYVSWYQQHPGKAPKLMIYEDSKRPSGVSNRFSGSKSGNTASLTISGLQAEDEADYYCRQPSNSPPLNFGGGTKLAV | no binding (tested: 50 µg/mL of biotinylated BSA) |
|  |  | I8.1 scFv antibody (scFv, Soluble scFv with c-myc and 6His tags) scFv: EVQLVESGGSLVKPGGSLRLSCAASGFTFSNYSMNWVRQAPGKGLEWISSISGSSRYIYYADFVKGRFTISRDNATNSLYLQMNSLRAEDTAVYYCVRNSFYASWSKDYSMEIWGRGTLVTVSSGGGGSGGGGSGGGGSQSVLTQPASVSGSPGQSITISCAGTSSDVGGYNYVSWYQQHPGKAPKLMIYEDSKRPSGVSNRFSGSKSGNTASLTISGLQAEDEADYYCQSWASRINIFGGGTKLAV | no binding (tested: 50 µg/mL of biotinylated BSA) |
| binds | binds | K3.1 scFv antibody (scFv, Human scFv from a semi-synthetic library (13R4 framework), made soluble in E. coli HB2151 and purified on nickel; It carried c-myc and 6His tags in the assays) scFv: EVQLVESGGSLVKPGGSLRLSCAASGFTFSNYSMNWVRQAPGKGLEWISSISGSSRYIYYADFVKGRFTISRDNATNSLYLQMNSLRAEDTAVYYCVRGEGLYSGSYNLHYWGRGTLVTVSSGGGGSGGGGSGGGGSQSVLTQPASVSGSPGQSITISCAGTSSDVGGYNYVSWYQQHPGKAPKLMIYEDSKRPSGVSNRFSGSKSGNTASLTISGLQAEDEADYFCGTPNTHALWVFGGGTKLAV | no binding (tested: 50 µg/mL of biotinylated BSA) |
